Results: PMC11224324

How the values were obtained:
[1] = target: Histag-Ct_HPt (residues 9-175), labelled with Red-Tris NTA dye (Chaetomium thermophilum); assay: MST; Histag-Ct_HPt labelled with Red-Tris NTA dye held constant; REC-1 domain in sixteen two-fold dilutions from 1 mM (0.32 mM for REC_hHK6); PBS + 0.05% Tween-20; medium MST power; hyperbolic fit, 1:1 model; mean of two titrations
[2] = target: Ct_HPt, histidine phosphotransfer protein from Chaetomium thermophilum (residues 9-175), Streptag removed (Chaetomium thermophilum)
Ct_HPt, histidine phosphotransfer protein from Chaetomium thermophilum (residues 9-175), Streptag removed (Chaetomium thermophilum), sequence (main, as listed by the source): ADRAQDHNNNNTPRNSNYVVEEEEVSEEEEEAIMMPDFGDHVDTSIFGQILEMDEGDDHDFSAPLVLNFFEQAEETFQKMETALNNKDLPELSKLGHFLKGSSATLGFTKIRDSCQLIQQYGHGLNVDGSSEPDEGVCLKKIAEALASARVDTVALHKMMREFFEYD

[3] = target: REC_(hHK6), REC-1 domain of hybrid histidine kinase hHK6 (group VI, ortholog of Sln1) from Chaetomium thermophilum (Chaetomium thermophilum); assay: SEC-MALS; 20 µg of protein injected on PROTEIN KW-403 4F (Shodex); 50 mM Hepes pH 7, 150 mM NaCl; 0.35 ml/min; without and with PAM or BeF3-
[4] = target: REC_(hHK3), REC-1 domain of hybrid histidine kinase hHK3 (group III, ortholog of Nik1) from Chaetomium thermophilum (Chaetomium thermophilum); assay: as above

REC_(hHK5), REC-1 domain of hybrid histidine kinase hHK5 (group V) from Chaetomium thermophilum (domain or fragment)
Kd [1]: 94 µM

REC_(hHK4), REC-1 domain of hybrid histidine kinase hHK4 (group IV) from Chaetomium thermophilum (domain or fragment)
phosphorylated Ct HPt (Ct HPt~P) on native gel after 30 min with REC-1 domain pre-phosphorylated with PAM (control of Ct HPt with PAM alone ~15%; none with AcP) [2]: 35%

REC_(hHK6), REC-1 domain of hybrid histidine kinase hHK6 (group VI, ortholog of Sln1) from Chaetomium thermophilum (domain or fragment)
stoichiometry N [3]: 2

REC_(hHK11), REC-1 domain of hybrid histidine kinase hHK11 (group XI) from Chaetomium thermophilum (domain or fragment)
phosphorylated Ct HPt (Ct HPt~P) on native gel after 30 min with REC-1 domain pre-phosphorylated with PAM (control of Ct HPt with PAM alone ~15%; none with AcP) [2]: 35%

REC_(hHK3), REC-1 domain of hybrid histidine kinase hHK3 (group III, ortholog of Nik1) from Chaetomium thermophilum (domain or fragment)
stoichiometry N [4]: 3
